Measurements taken from US20170247716A1 (PIONEER HI BRED INTERNATIONAL, published 2017).

B1: AtARL-NubG (other, UniProt Q8RXL7 1-135, looked up)
chain: MIREFSSLQNDIINIQEHYSLNNNMDVRGDHNRKNTSFRGSAPAPIMGKQELFRTLSSQNSPRRLISASYFSLESMVVLVGLTASLLILPLILPPLPPPPFMLLLIPIGIMVLLMVLAFMPSSNSKHVSSSSTFM
notes: Prey of the split-ubiquitin yeast two-hybrid system; also called Arabidopsis ARGOS-LIKE (ARL); not shown: N-terminal half of a mutated ubiquitin (NubG)

Key:
AtARL-NubG = molecular target: B1; assay: yeast split-ubiquitin two-hybrid
Protocol: (§1) (B) β-Galactosidase assay for yeast diploid cells expressing AtRTE1-Cub-PLV and various ARGOS-NubG fusion proteins. Yeast cells were cultured in SC-Leu-Trp liquid medium. The β-Galactosidase (β-Gal) activity assay uses […] as a substrate. (C) Growth of yeast diploid cells from the mating of haploid strains containing ARGOS-NubG constructs and negative control […] construct. The plates were incubated at 28° C. for 4 days. (D) Liquid β-Galactosidase assay for yeast diploid cells expressing negative control AtCHX20-Cub-PLV and various ARGOS-NubG fusion proteins.
(§2) (A) Growth of yeast diploid cells on SC dropout media to show protein-protein interaction of ZmRTL4 with Arabidopsis and maize ARGOS. The SC-Leu-Trp and SC-Leu-Trp-His-Ade media contain 134 and 375 μM Met, respectively. The plates were incubated at 28° C. for 4 days. (B) β-Galactosidase assay for yeast diploid cells expressing ZmRTE4-Cub-PLV and various ARGOS-NubG fusion proteins. (C) Growth of yeast diploid cells on SC dropout media to show protein-protein interaction of ZmRTL2 with Arabidopsis and maize ARGOS. The SC-Leu-Trp and SC-Leu-Trp-His-Ade media contain 134 μM Met. The plates were incubated at 28° C. for 5 days. (D) β-Galactosidase assay for yeast diploid cells expressing ZmRTE2-Cub-PLV and various ARGOS-NubG fusion proteins. […]

AtRTE1-Cub-PLV = molecular target: T1, AtRTE1-Cub-PLV (Arabidopsis, UniProt F4ITL6 1-250); assay: yeast split-ubiquitin two-hybrid
T1 construct: Bait of the mating-based split-ubiquitin yeast two-hybrid system; also called AtRTE1 bait construct; not shown: C-terminal half of ubiquitin (Cub); synthetic transcription factor PLV (protease A-LexA-VP16)
T1 sequence (looked up): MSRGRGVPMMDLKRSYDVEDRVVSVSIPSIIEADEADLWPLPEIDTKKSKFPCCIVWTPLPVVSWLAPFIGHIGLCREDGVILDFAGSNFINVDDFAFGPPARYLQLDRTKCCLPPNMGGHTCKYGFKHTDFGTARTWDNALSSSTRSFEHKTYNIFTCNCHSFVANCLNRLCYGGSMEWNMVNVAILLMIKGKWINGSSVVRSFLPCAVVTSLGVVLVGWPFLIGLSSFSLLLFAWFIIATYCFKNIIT
Protocol: as §1, §2

Binder | binding result (AtARL-NubG) | binding result (AtRTE1-Cub-PLV)
ZmRTL4-Cub-PLV (other, domain: C-terminal half of ubiquitin (Cub); Bait of the split-ubiquitin yeast two-hybrid system; the legend prints ZmRTE4-Cub-PLV; also called ZmRTE4-Cub-PLV; ZmRTL4 bait construct; not shown: C-terminal half of ubiquitin (Cub); synthetic transcription factor PLV (protease A-LexA-VP16)) MENDRRQLGQIDPRRARFPCCIVWTPIPFITWLVPFIGHIGICREDGVILDFSGPHFVSVDNFAFGAVARYIQVNCDECYKLIEPEGDATWDGALKKGTQEFQNRNYNLFTCNCHSFVANNLNRLFYSGHDEWNVVSLAAVMFLRGRWVSTASVVKTLLPFAVVLSIGTFLGGTTFLTGLLAFAAAMTVWFLVGTYCIKGLIEL | binds | –
B1 | – | binds
